In paper PMC3223204, “Implantation Serine Proteinase 1 Exhibits Mixed Substrate Specificity that Silences Signaling via Proteinase-Activated Receptors” (PLoS ONE, 2011):

Assays:
human PAR1 = target: T1, human PAR1 (Homo sapiens, UniProt P25116, INS26FLNCCPGCCMEPA); experiment: Release of N-terminal BAB motif from PAR1 on COS-1 cells; format: cell-based; conditions: 0.1 and 0.5 units per ml, 37°C, 30 minutes
T1 construct: expressed in transfected cells; host or cells: COS-1
T1 sequence (P25116 with tags, fused parts or gaps limits assumed): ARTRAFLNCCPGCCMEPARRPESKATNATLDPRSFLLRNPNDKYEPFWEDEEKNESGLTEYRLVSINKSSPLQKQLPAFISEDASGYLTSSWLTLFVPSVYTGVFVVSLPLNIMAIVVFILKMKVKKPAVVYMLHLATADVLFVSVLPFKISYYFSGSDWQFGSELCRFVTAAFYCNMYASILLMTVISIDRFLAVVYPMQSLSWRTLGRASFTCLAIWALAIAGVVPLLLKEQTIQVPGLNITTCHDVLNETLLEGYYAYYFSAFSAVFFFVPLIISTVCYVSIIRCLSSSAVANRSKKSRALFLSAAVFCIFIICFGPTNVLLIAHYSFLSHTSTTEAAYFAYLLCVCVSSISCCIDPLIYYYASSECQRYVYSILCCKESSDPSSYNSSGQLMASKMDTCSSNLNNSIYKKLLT
Text: (§1) The biarsenical fluorochrome binding domain (BAB), containing a tetra-cysteine motif, […] for PAR1, […] for PAR2 and […] for PAR4 was inserted into the receptor N-terminal domains by introducing corresponding oligonucleotides just downstream of the signal peptide of PARs, after A26 for human PAR1, Q27 for human PAR2 and V25 for human PAR4. The PAR DNA constructs containing the N-terminal BAB domain and a YFP C-terminal fluorochrome tag were cloned in pCDNA3.1+ at the restriction enzyme sites between Eco RI and Xba I. COS-1 cells obtained from ATCC (Manassas, VA USA) were transected with the PAR constructs with the FuGENE6 transfection reagent (Roche Applied Bioscience). The expression level of the expressed receptor was quantified using a fluorescence plate reader, (Victor 4X, Perkin-Elmer), and confocal microscopy was used to monitor the receptor location by visualizing the receptor YFP tag. […] Then, the peptide(s) containing the receptor BAB tetracysteine motif released by proteinases from the receptor N-terminus into the cell culture supernatant was quantified using a Victor X4 fluorescent plate reader with an excitation wavelength of 540 nm and an emission wavelength monitored at 615 nm. […]

thrombin = target: T2, thrombin (Homo sapiens, UniProt P00734); experiment: Effect of ISP1 on enzyme activity of thrombin; format: biochemical; conditions: data not shown
T2 construct: High activity human thrombin (cat. number 605195, lot B37722; 3,186 NIH units/mg) was from Calbiochem; purchased Calbiochem 605195

human PAR2 = target: T3, human PAR2 (Homo sapiens, UniProt P55085); experiment: Release of N-terminal BAB motif from PAR2 on COS-1 cells; format: cell-based; conditions: 0.1 and 0.5 units per ml, 37°C, 30 minutes
T3 construct: expressed in transfected cells; host or cells: COS-1
T3 sequence (P55085 with tags, fused parts or gaps limits assumed): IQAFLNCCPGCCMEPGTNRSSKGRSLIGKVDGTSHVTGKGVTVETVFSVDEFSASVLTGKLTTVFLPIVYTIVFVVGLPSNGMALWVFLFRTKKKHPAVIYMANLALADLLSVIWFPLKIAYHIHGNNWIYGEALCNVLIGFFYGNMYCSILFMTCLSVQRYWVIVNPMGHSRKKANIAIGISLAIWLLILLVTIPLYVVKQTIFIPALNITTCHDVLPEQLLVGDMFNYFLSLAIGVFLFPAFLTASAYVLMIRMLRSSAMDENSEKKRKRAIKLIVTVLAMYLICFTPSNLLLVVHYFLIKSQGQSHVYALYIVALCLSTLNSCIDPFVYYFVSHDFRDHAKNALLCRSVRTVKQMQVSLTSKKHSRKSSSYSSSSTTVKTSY
Text: as §1

Inhibitory effect on enzyme activity of thrombin (thrombin): doesn't have any inhibitory effect
B1: ISP1: recombinant implantation serine proteinase 1 expressed in Pichia pastoris, also known as Mouse Prss28 (protein, UniProt Q924N9 27-274, looked up)
Serine protease 28: KPVGIVGGQRTPPGKWPWQVSLRMYSYEVNSWVHICGGSIIHPQWILTAAHCIQSQDADPAVYRVQVGEVYLYKEQELLNISRIIIHPDYNDVSKRFDLALMQLTALLVTSTNVSPVSLPKDSSTFDSTDQCWLVGWGNLLQRVPLQPPYQLHEVKIPIQDNKSCKRAYRKKSSDEHKAVAIFDDMLCAGTSGRGPCFGDSGGPLVCWKSNKWIQVGVVSKGIDCSNNLPSIFSRVQSSLAWIHQHIQ
modifications: recombinant, Pichia pastoris-expressed
notes: recombinant implantation serine proteinase 1 expressed in Pichia pastoris, also known as Mouse Prss28
Release of PAR1 N-terminal BAB domain (PAR cleavage activity) (human PAR1): significant concentration-dependent PAR cleavage activity
Release of PAR2 N-terminal BAB domain (PAR cleavage activity) (human PAR2): significant concentration-dependent PAR cleavage activity
